B1: FBH1-YFP (natural protein, Arabidopsis thaliana, UniProt Q9C8P8 1-259, looked up)
chain: MQSTHISGGSSGGGGGGGGEVSRSGLSRIRSAPATWIETLLEEDEEEGLKPNLCLTELLTGNNNSGGVITSRDDSFEFLSSVEQGLYNHHQGGGFHRQNSSPADFLSGSGSGTDGYFSNFGIPANYDYLSTNVDISPTKRSRDMETQFSSQLKEEQMSGGISGMMDMNMDKIFEDSVPCRVRAKRGCATHPRSIAERVRRTRISDRIRRLQELVPNMDKQTNTADMLEEAVEYVKALQSQIQELTEQQKRCKCKPKEEQ
notes: FBH1, Arabidopsis thaliana, At1g35460; FRET acceptor; also called FLOWERING BHLH 1; source: Arabidopsis protoplast cells, co-expressed

Experiments:
Assay in all cases: FRET or BRET; FLIM-FRET in Arabidopsis protoplast cells, 24 h after transformation; CFP fusion as donor, YFP fusion as acceptor; CFP lifetime in nuclei; negative controls TCP4-CFP/YFP tauD 2.59 ± 0.39 ns and PFT1-CFP/YFP tauD 2.80 ± 0.28 ns
Conditions in all cases: partners not purified
PFT1-CFP = target: T1, PFT1-CFP (Arabidopsis thaliana, UniProt Q7XYY2 1-836)
T1 construct: PFT1 (MED25), Arabidopsis thaliana, At1g25540; FRET donor; also called PHYTOCHROME AND FLOWERING TIME 1; MED25; source: Arabidopsis protoplast cells, co-expressed
T1 sequence (looked up): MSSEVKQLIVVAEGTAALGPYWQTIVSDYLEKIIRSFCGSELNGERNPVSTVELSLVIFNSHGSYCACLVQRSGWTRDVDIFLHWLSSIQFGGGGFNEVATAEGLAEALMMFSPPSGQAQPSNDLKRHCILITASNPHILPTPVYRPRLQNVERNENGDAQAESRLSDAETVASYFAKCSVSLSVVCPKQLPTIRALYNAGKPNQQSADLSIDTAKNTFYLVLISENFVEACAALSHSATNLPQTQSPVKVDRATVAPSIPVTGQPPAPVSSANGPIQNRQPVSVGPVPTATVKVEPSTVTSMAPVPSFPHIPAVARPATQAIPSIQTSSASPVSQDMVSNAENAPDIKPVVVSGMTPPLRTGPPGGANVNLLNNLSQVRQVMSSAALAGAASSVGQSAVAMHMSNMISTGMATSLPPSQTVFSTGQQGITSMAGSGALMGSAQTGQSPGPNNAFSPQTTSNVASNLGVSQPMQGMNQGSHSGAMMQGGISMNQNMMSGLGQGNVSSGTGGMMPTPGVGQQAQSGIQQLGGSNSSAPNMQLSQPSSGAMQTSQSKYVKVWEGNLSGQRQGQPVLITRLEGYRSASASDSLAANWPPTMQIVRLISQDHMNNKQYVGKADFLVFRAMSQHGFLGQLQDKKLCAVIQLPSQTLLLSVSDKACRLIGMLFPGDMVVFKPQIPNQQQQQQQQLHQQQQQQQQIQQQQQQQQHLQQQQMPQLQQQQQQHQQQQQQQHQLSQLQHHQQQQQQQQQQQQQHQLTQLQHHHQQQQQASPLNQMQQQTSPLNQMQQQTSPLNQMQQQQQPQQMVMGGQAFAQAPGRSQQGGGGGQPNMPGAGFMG

PFT1-YFP = target: T2, PFT1-YFP (Arabidopsis thaliana, UniProt Q7XYY2 1-836)
T2 construct: PFT1 (MED25), Arabidopsis thaliana, At1g25540; FRET acceptor; also called PHYTOCHROME AND FLOWERING TIME 1; MED25; source: Arabidopsis protoplast cells, co-expressed
T2 sequence (looked up): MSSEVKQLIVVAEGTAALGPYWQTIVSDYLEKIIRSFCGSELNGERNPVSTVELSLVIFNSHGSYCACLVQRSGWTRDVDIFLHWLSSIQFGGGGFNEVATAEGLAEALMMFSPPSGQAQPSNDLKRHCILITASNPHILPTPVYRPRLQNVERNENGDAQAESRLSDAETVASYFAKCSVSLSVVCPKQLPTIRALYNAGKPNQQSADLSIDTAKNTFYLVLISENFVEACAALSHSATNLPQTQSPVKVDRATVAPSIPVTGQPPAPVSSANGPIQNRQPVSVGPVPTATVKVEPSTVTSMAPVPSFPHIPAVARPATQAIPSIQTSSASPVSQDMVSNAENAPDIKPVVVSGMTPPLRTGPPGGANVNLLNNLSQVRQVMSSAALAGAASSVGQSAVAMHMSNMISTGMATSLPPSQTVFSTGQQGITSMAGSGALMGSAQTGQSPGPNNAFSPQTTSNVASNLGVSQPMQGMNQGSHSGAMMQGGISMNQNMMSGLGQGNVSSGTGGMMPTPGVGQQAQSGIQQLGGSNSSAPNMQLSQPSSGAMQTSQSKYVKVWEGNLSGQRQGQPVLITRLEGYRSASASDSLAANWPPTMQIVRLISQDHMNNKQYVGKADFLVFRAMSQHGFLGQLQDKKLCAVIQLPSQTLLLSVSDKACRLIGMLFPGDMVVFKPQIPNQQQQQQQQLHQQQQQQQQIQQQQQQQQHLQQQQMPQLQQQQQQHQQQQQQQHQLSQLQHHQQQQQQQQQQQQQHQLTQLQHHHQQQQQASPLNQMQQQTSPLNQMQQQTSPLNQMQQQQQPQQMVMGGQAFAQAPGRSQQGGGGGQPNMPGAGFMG

FBH1-YFP = target: B1

B1
average CFP fluorescence lifetime (tauDA) (PFT1-CFP): 0.95 ns

B2: TCP4-CFP (natural protein, Arabidopsis thaliana, UniProt Q8LPR5 1-420, looked up)
chain: MSDDQFHHPPPPSSMRHRSTSDAADGGCGEIVEVQGGHIVRSTGRKDRHSKVCTAKGPRDRRVRLSAHTAIQFYDVQDRLGFDRPSKAVDWLIKKAKTSIDELAELPPWNPADAIRLAAANAKPRRTTAKTQISPSPPPPQQQQQQQQLQFGVGFNGGGAEHPSNNESSFLPPSMDSDSIADTIKSFFPVIGSSTEAPSNHNLMHNYHHQHPPDLLSRTNSQNQDLRLSLQSFPDGPPSLLHHQHHHHTSASASEPTLFYGQSNPLGFDTSSWEQQSSEFGRIQRLVAWNSGGGGGATDTGNGGGFLFAPPTPSTTSFQPVLGQSQQLYSQRGPLQSSYSPMIRAWFDPHHHHQSISTDDLNHHHHLPPPVHQSAIPGIGFASGEFSSGFRIPARFQGQEEEQHDGLTHKPSSASSISRH
notes: TCP4, Arabidopsis thaliana, At3g15030; FRET donor; source: Arabidopsis protoplast cells, co-expressed
average CFP fluorescence lifetime (tauDA) (PFT1-YFP): 0.9 ns
average CFP fluorescence lifetime (tauDA) (FBH1-YFP): 0.99 ns

From article PMC5469495, “MicroRNA319-regulated TCPs interact with FBHs and PFT1 to activate CO transcription and control flowering time in Arabidopsis” (PLoS Genetics, 2017)
